The star is where a group is joined. Biotin = O=C1N[C@H]2[C@H](CS[C@H]2CCCCC(=O)*)N1
B1: proline-rich p22^phox peptide (biotin-p22^phox) (peptide)
peptide: Biotin-SGSGPPSNPPPRPPAEARK-NH2
SMILES: C[C@H](NC(=O)[C@H](CCC(=O)O)NC(=O)[C@H](C)NC(=O)[C@@H]1CCCN1C(=O)[C@@H]1CCCN1C(=O)[C@H](CCCNC(=N)N)NC(=O)[C@@H]1CCCN1C(=O)[C@@H]1CCCN1C(=O)[C@@H]1CCCN1C(=O)[C@H](CC(N)=O)NC(=O)[C@H](CO)NC(=O)[C@@H]1CCCN1C(=O)[C@@H]1CCCN1C(=O)CNC(=O)[C@H](CO)NC(=O)CNC(=O)[C@H](CO)NC(=O)CCCC[C@@H]1SC[C@@H]2NC(=O)N[C@@H]21)C(=O)N[C@@H](CCCNC(=N)N)C(=O)N[C@@H](CCCCN)C(N)=O

How the values were obtained:
[1] = biological target: p47^phox (Homo sapiens, UniProt P14598); test: ELISA of p47phox-p22phox peptide interaction; assay type: binding
[2] = biological target: T1, C111A-p47^phox (human, UniProt P14598 1-390, C111A); test: ELISA
T1 sequence (looked up): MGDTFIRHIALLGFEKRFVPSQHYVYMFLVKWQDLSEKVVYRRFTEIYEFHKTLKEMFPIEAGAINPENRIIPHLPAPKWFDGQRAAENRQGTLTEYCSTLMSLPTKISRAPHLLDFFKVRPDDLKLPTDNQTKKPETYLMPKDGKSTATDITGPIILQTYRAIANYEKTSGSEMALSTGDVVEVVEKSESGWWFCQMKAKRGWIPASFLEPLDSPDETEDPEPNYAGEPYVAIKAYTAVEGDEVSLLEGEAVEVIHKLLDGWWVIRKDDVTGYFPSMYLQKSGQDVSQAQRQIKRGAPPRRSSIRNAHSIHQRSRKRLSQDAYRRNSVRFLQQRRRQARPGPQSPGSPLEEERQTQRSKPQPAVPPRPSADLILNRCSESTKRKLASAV

[3] = biological target: T2, C98G-p47^phox (human, UniProt P14598 1-390, C98G); test: ELISA
T2 sequence (looked up): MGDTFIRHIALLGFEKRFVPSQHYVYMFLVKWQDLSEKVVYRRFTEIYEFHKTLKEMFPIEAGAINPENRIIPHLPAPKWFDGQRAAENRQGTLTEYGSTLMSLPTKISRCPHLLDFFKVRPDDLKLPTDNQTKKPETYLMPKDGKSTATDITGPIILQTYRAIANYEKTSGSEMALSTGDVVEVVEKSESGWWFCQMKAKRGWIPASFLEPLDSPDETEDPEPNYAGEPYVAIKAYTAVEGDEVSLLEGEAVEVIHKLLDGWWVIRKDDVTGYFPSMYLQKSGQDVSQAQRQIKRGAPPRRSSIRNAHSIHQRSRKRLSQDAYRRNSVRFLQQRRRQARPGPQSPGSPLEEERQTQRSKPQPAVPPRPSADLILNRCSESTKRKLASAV

[4] = biological target: T3, C196A-p47^phox (human, UniProt P14598 1-390, C196A); test: ELISA
T3 sequence (looked up): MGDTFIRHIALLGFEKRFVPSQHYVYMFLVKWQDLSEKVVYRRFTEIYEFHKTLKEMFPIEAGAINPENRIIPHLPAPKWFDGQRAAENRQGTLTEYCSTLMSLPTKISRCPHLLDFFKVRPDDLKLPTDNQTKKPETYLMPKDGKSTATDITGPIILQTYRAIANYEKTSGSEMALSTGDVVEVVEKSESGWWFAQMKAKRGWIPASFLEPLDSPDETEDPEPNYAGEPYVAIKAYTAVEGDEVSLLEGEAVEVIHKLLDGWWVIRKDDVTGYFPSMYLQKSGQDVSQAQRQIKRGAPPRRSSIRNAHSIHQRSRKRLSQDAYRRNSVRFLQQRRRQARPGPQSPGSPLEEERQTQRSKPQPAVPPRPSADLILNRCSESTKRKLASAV

[5] = biological target: T4, C378A-p47^phox (human, UniProt P14598 1-390, C378A); test: ELISA
T4 sequence (looked up): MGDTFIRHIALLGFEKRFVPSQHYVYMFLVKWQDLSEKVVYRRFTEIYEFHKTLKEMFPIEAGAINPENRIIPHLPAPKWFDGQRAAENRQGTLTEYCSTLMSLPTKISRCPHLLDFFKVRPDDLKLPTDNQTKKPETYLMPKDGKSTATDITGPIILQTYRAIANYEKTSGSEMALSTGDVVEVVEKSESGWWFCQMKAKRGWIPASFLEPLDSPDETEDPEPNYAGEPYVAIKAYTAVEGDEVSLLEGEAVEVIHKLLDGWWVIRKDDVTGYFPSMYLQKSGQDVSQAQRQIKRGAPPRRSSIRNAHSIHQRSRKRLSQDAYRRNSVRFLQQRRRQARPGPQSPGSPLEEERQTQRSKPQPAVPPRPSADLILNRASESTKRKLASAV

[6] = biological target: T5, His-p47^phox wild type (human, UniProt P14598 1-390); test: ELISA
T5 sequence (looked up): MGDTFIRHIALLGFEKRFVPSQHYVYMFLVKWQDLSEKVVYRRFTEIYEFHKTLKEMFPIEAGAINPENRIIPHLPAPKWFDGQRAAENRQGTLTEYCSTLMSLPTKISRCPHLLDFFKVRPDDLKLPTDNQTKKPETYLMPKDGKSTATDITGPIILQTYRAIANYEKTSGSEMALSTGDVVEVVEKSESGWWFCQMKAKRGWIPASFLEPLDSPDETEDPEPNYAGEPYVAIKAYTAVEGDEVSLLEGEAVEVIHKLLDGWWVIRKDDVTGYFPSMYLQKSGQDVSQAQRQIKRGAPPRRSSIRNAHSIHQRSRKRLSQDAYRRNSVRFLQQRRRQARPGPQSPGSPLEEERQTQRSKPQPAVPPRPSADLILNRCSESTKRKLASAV

Chain of p47^phox (P13498 2-195, one chain of several): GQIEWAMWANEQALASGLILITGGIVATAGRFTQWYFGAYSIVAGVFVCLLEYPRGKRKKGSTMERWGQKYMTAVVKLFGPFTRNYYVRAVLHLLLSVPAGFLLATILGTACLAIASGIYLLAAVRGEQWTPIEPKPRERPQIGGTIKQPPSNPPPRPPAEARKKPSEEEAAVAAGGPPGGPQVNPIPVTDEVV

Row | Molecule | IC50 [1] [nM] | binding result [2] | binding result [3] | binding result [4] | binding result [5] | binding result [6]
1 | O=C1C=CC(=O)c2ccccc21 [1,4-naphthoquinone] | 700 |  |  |  |  | 
2 | B1 |  | binds | binds | binds | binds | binds

Source: PMC3278529 (Free radical biology & medicine, 2011)
